Reference: patent publication US20240287178A1 (YALE UNIVERSITY, published 2024)

Assays:
Rat UNC5B = target: T1, Rat UNC5B (rat, UniProt O08722); assay: Biacore
T1 construct: a recombinant rat Unc5B-ECD Fc fusion protein (R&D systems) only for the phage selection; Kept apart from m11, which is the GFP fusion expressed in PAECs; also called rat Unc5B (Biacore analysis)

human Unc5B = target: T2, human Unc5B (human, UniProt Q8IZJ1 27-945); assay: Biacore
T2 construct: whole, on cells; also called Unc5B (HUVEC)

[1] = target: T3, Unc5B (analyte or ligand of the Biacore analysis; species and construct not stated); assay: Biacore (SPR); format not stated
T3 construct: The phage selection used a recombinant rat Unc5B-ECD Fc fusion (R&D Systems)

mouse Unc5B [2] = target: T4, mouse Unc5B (mouse, UniProt Q8K1S3 27-945); assay: immunoprecipitation from Bend.3 cells after antibody treatment, western blot for Unc5B
T4 construct: whole, on cells; Endogenous receptor, on cells or in brain lysates; also called Unc5B (Bend.3 cells, mouse brain)

[3] = target: T5, rat Unc5B coupled to GFP, in transfected porcine aortic endothelial cells (PAECs) (rat, UniProt O08722 27-945); assay: immunoprecipitation from PAECs transfected with rat Unc5B-GFP, 1 h after antibody treatment
T5 construct: whole, on cells; also called rat Unc5B-GFP; not shown: GFP
Source text: Light (LC) and Heavy (HC) chains were sequenced for each antibody (FIGS. 1A-1D and 2A-2D).

mouse Unc5B [4] = target: T4, mouse Unc5B; assay: co-immunoprecipitation with the anti-Unc5B antibodies from Bend.3 cells, western blot for Claudin5

B1: antibody 1097 (antibody, V domains shown)
VH: EVQLVESGGGLVQPGGSLRLSCAASGFNLYYYSMHWVRQAPGKGLEWVASIYSYSSYTSYADSVKGRFTISADTSKNTAYLQMNSLRAEDTAVYYCARSYAMDYWGQGTLVTVSS
VL: DIQMTQSPSSLSASVGDRVTITCRASQSVSSAVAWYQQKPGKAPKLLIYSASSLYSGVPSRFSGSRSGTDFTLTISSLQPEDFATYYCQQSYGPFTFGQGTKVEIKR
With B1 the Kd (Rat UNC5B) was 0.712 nM, the koff (Rat UNC5B) was 0.00104 s⁻¹ and the kon (Rat UNC5B) was 1.46e+06 M⁻¹ s⁻¹. The Kd (human Unc5B) was 0.692 nM, the koff (human Unc5B) was 0.000993 s⁻¹ and the kon (human Unc5B) was 1.44e+06 M⁻¹ s⁻¹. It also gave a Kd [1] of 0.7 nM.

B2: antibody 1096 (antibody, V domains shown)
VH: EVQLVESGGGLVQPGGSLRLSCAASGFNLYYSSIHWVRQAPGKGLEWVASIYSYSSYTSYADSVKGRFTISADTSKNTAYLQMNSLRAEDTAVYYCARSYAMDYWGQGTLVTVSS
VL: DIQMTQSPSSLSASVGDRVTITCRASQSVSSAVAWYQQKPGKAPKLLIYSASSLYSGVPSRFSGSRSGTDFTLTISSLQPEDFATYYCQQGFAPFTFGQGTKVEIKR
B2: binds (mouse Unc5B [2]); binds [3].

B3: antibody 1102 (antibody, V domains shown)
VH: EVQLVESGGGLVQPGGSLRLSCAASGFNIYYSSMHWVRQAPGKGLEWVASIYSYSSYTSYADSVKGRFTISADTSKNTAYLQMNSLRAEDTAVYYCARSFAMDYWGQGTLVTVSS
VL: DIQMTQSPSSLSASVGDRVTITCRASQSVSSAVAWYQQKPGKAPKLLIYSASSLYSGVPSRFSGSRSGTDFTLTISSLQPEDFATYYCQQAYSPFTFGQGTKVEIKR
B3: binds [3].

B4: anti-Unc5B antibody 1103 (antibody, V domains shown)
VH: EVQLVESGGGLVQPGGSLRLSCAASGFNISYYSIHWVRQAPGKGLEWVASIYSSSGYTSYADSVKGRFTISADTSKNTAYLQMNSLRAEDTAVYYCARGYGLDYWGQGTLVTVSS
VL: DIQMTQSPSSLSASVGDRVTITCRASQSVSSAVAWYQQKPGKAPKLLIYSASSLYSGVPSRFSGSRSGTDFTLTISSLQPEDFATYYCQQHYSYPITFGQGTKVEIKR
With B4 the Kd (Rat UNC5B) was 1.34 nM, the koff (Rat UNC5B) was 0.000501 s⁻¹ and the kon (Rat UNC5B) was 375000 M⁻¹ s⁻¹. The Kd (human Unc5B) was 1.29 nM, the koff (human Unc5B) was 0.000482 s⁻¹ and the kon (human Unc5B) was 375000 M⁻¹ s⁻¹. For the same binder, the Kd [1] was 1.3 nM.

B5: antibody 1095 (antibody, human IgG2, kappa, V domains shown)
VH: EVQLVESGGGLVQPGGSLRLSCAASGFNISYSSIHWVRQAPGKGLEWVAYIYPYYGYTYYADSVKGRFTISADTSKNTAYLQMNSLRAEDTAVYYCARGYGIDYWGQGTLVTVSS
VL: DIQMTQSPSSLSASVGDRVTITCRASQSVSSAVAWYQQKPGKAPKLLIYSASSLYSGVPSRFSGSRSGTDFTLTISSLQPEDFATYYCQQHYSLFTFGQGTKVEIKR
B5: binds (mouse Unc5B [2]); binds [3].

B6: antibody 1100 (antibody, V domains shown)
VH: EVQLVESGGGLVQPGGSLRLSCAASGFNLYYSSIHWVRQAPGKGLEWVASIYSYSSYTSYADSVKGRFTISADTSKNTAYLQMNSLRAEDTAVYYCARGYAMDYWGQGTLVTVSS
VL: DIQMTQSPSSLSASVGDRVTITCRASQSVSSAVAWYQQKPGKAPKLLIYSASSLYSGVPSRFSGSRSGTDFTLTISSLQPEDFATYYCQQHYGLITFGQGTKVEIKR
B6: binds (mouse Unc5B [2]); binds [3].

B7: antibody 1098 (antibody, V domains shown)
VH: EVQLVESGGGLVQPGGSLRLSCAASGFNIYYSYMHWVRQAPGKGLEWVASIYSYSSYTSYADSVKGRFTISADTSKNTAYLQMNSLRAEDTAVYYCARHYAMDYWGQGTLVTVSS
VL: DIQMTQSPSSLSASVGDRVTITCRASQSVSSAVAWYQQKPGKAPKLLIYSASSLYSGVPSRFSGSRSGTDFTLTISSLQPEDFATYYCQQSYSPFTFGQGTKVEIKR
B7: binds (mouse Unc5B [2]); binds [3].

B8: antibody 1099 (antibody, V domains shown)
VH: EVQLVESGGGLVQPGGSLRLSCAASGFNLYYYSIHWVRQAPGKGLEWVASIYPYSSYTSYADSVKGRFTISADTSKNTAYLQMNSLRAEDTAVYYCARGYAFNYWGQGTLVTVSS
VL: DIQMTQSPSSLSASVGDRVTITCRASQSVSSAVAWYQQKPGKAPKLLIYSASSLYSGVPSRFSGSRSGTDFTLTISSLQPEDFATYYCQQHYALFTFGQGTKVEIKR
B8: binds [3].

B9: mouse Claudin5 (other, UniProt O54942 1-218, looked up)
chain: MGSAALEILGLVLCLVGWVGLILACGLPMWQVTAFLDHNIVTAQTTWKGLWMSCVVQSTGHMQCKVYESVLALSAEVQAARALTVGAVLLALVALFVTLTGAQCTTCVAPGPVKARVALTGGALYAVCGLLALVPLCWFANIVVREFYDPTVPVSQKYELGAALYIGWAASALLMCGGGLVCCGAWVCTGRPEFSFPVKYSAPRRPTANGDYDKKNYV
B9: binds (mouse Unc5B [4]).

B10: antibody 1101 (antibody, V domains shown)
VH: EVQLVESGGGLVQPGGSLRLSCAASGFNIYYSSMHWVRQAPGKGLEWVAYISSSYGYTYYADSVKGRFTISADTSKNTAYLQMNSLRAEDTAVYYCARGYYAGYFGIDYWGQGTLVTVSS
VL: DIQMTQSPSSLSASVGDRVTITCRASQSVSSAVAWYQQKPGKAPKLLIYSASSLYSGVPSRFSGSRSGTDFTLTISSLQPEDFATYYCQQAGWPITFGQGTKVEIKR
B10: binds [3].
